Assay results: patent WO2023190851A1 (dated 2023)

Target: SARS-CoV-2 Spike RBD, His Tag (BA.2/Omicron) (SARS-CoV-2, Omicron BA.2 lineage, UniProt P0DTC2 319-537)

B1: natural human IgG antibody (HIG001677) (antibody, V domains shown)
VH: EVQLVESGGGLVQPGGSLRLACAASGLTVSRNYMNWVRQAPGKGLEWVSLVYPGGSTFYADSVKGRFTISRDNSKNTLYLQMNSLRADDTAVYYCAREVRGRGDYWGQGTLVTVST
VL: DIQMTQSPSSLSASVGDRVTITCQASQDINKYLNWYQQKPGKAPKLLIYDASNLEPGVPSRFSGSGSGTDFTFTISNLQPEDIATYYCQNYDNLPQTFGQGTRLEIKR
How did the Kd turn out when B1 was run?
Its Kd is 8.58 nM.
